The text below walks through data of publication PMC7666158.

pKd, pKi: −log10 of the molar value.

The target in test [1] is JNK1-dc20 (JNK1 with the C-terminal 20 residues truncated) (human) (UniProt P45983). Put plainly: fluorescence polarisation; competitive: 50 nM CF-evJIP with JNK1 at ~60–80% complex, titrated with unlabeled competitor; 20 mM Tris pH 8.0, 100 mM NaCl, 0.05% Brij35P, 2 mM TCEP; 384-well plates. (In general: In fluorescence polarisation assays a small probe gives low polarisation when free and higher when bound to something large.)

Test [2] concerns the target CF-evJIP (carboxyfluorescein-labeled reporter docking peptide). Description: fluorescence polarisation; direct titration: 50 nM CF-evJIP, JNK1 concentration increased; 20 mM Tris pH 8.0, 100 mM NaCl, 0.05% Brij35P, 2 mM TCEP; 384-well plates.
Test [3] deals with pp-p38 (double-phosphorylated, activated p38α) (human) (UniProt Q16539). Put plainly: competition in an in vitro kinase assay; 2 nM pp-p38, 2 µM MBP-ATF2 substrate, 3-fold dilution series of peptide from 1 mM; phospho-ATF2 dot blot; Ki = IC50/(1 + S/KM), KM 17.3 µM.

With “MBP-c-Jun(1–78) K35E (domain or fragment)”, the fold decrease in binding against the wild type in test [1] came out at 10 fold. As to “ATF2(19–100) Q34R/H47R (mutant construct of the FP assay of Fig. 2b) (from UniProt P15336-1 19-100) (domain or fragment)”, the fold stronger binding than the wild type in test [1] stood at 100 fold. In general, pKd refers to the Kd on a negative log10 scale, so that one unit is a factor of ten. A low value points to a high Kd. For the substance “JNK1-dc20 (JNK1 where the C-terminal 20 residues are truncated) (from UniProt P45983 1-364) (enzyme)”, the negative-log Kd (pKd) in test [2] was 6.33.

One may read the pKi as the negative decadic logarithm of the Ki, by convention in mol/L. Take “SPFENEF peptide (ATF2 83–102) phospho-S90”: in test [3], the pKi is 3.09. With SPFENEF peptide (ATF2 83–102), WT, in test [3], the pKi is 4.47. Consider “SPFENEF peptide (ATF2 83–102) S90N (from UniProt P15336-1 83-102)”, for which the pKi in test [3] is 5.12.
